This is an account of results in paper PMC6943187.

This experiment has as its target WT FUS::EGFP (FUS tagged with a C-terminal GFP tag) (UniProt P35637). Nature of the experiment: single-molecule photobleaching step counting.

For “WT FUS::EGFP (FUS tagged with a C-terminal GFP tag) (from UniProt P35637 1-526)”, the fraction of dimers (two-step photobleaching) was found to be 30%.
